Laboratory results as given in IntAct's records for PubMed 17259181.

B1: Zinc finger protein ZAT7 (Arabidopsis thaliana (Mouse-ear cress)), Q42453 (parent)
chain: MVARSEEIVIVEEDTTAKCLMLLSRVGECGGGCGGDERVFRCKTCLKEFSSFQALGGHRASHKKLINSDNPSLLGSLSNKKTKTSHPCPICGVKFPMGQALGGHMRRHRNEKVSGSLVTRSFLPETTTVTALKKFSSGKRVACLDLDLDSMESLVNWKLELGRTISWS
partner: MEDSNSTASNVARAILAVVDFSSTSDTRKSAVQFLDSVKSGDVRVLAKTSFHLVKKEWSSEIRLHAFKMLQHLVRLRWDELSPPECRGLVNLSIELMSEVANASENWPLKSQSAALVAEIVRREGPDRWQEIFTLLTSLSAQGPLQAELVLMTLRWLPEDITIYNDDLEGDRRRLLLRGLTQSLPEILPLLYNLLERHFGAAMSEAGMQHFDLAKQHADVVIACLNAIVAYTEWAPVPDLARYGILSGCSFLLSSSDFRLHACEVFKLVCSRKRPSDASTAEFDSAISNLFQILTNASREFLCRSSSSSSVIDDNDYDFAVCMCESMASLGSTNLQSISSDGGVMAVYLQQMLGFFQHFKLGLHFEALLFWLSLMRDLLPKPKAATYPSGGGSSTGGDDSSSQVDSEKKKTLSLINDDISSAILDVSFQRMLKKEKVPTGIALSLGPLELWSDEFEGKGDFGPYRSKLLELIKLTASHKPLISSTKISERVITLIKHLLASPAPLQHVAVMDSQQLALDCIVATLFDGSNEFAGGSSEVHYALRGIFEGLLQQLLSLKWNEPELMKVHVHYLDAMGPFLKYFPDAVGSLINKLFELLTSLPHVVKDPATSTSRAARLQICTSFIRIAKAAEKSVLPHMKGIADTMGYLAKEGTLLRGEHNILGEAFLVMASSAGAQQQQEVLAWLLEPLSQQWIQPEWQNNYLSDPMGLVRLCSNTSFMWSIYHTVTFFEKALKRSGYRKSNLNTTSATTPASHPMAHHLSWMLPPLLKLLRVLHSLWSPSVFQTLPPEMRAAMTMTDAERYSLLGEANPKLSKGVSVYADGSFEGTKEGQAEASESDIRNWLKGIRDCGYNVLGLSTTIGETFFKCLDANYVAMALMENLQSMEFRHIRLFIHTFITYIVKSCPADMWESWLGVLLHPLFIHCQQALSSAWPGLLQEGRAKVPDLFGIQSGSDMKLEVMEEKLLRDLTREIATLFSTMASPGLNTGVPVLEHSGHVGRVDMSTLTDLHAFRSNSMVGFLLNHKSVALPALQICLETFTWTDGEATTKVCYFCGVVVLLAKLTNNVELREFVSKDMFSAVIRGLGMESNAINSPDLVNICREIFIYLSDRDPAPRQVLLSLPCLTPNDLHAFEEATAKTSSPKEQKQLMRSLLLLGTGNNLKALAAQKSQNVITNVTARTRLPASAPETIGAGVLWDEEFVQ

Variants of: B1
Conditions: with hasty_arath HST1, Q0WP44

effect of a mutation on the interaction	Variant
disrupting interaction	D145A;L146A;D147A
